The record followed here is the supplement of paper PMC9732359.

The data set can be described thus: protein stability index of a GFP-peptide fusion (yeast GPS) (PSI 1-4); higher = more stable; sorted into four equal gates, so the index is relative within each strain. The method, boiled down: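 For each peptide, the protein stability index sums the read frequency in every gate after multiplying it by the gate number. Read frequencies came from plasmids that were PCR-amplified from each gate and Illumina-sequenced, with reads assigned to strains by barcodes. The gates were four equal bins of GFP/Cherry fluorescence ratio applied to mid-log yeast in leucine-free medium carrying a pooled library of tiled 17-residue yeast protein peptides fused downstream of GFP on a Cherry-expressing plasmid.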

± gives the uncertainty stated by the source.

On to FKVQIIELLSYLVEAPW [YML103C/NUP188], for which the protein stability index is, setting by setting: (doa10∆) 1.71 ± 0.091; (pdr5∆) 2.03 ± 0.12; (san1∆) 1.69 ± 0.21; (ubr1∆) 2.26 ± 0.14.

Turning to LLPTIKRTICKKCHRLL [RPR2], the protein stability index runs as follows: (doa10∆) 2.32 ± 0.065; (pdr5∆) 2.36 ± 0.054; (san1∆) 2.26 ± 0.11; (ubr1∆) 2.34 ± 0.034.

As to VTEMSNNANVLGGEIND [BRR2], the protein stability index by setting is: (doa10∆) 3.18 ± 0.11; (pdr5∆) 3.18 ± 0.12; (san1∆) 3.51 ± 0.085; (ubr1∆) 3.15 ± 0.064.

Regarding HMATALQIAQLTLKHRQ [RPN10], the protein stability index came out at 1.58 ± 0.13 (doa10∆), 1.8 ± 0.084 (pdr5∆), 1.59 ± 0.11 (san1∆) and 1.62 ± 0.068 (ubr1∆).

As for ITHNTNITDNLFQELSK [GRR1], the protein stability index worked out at 3.27 ± 0.091 (doa10∆), 3.55 ± 0.13 (pdr5∆), 3.62 ± 0.22 (san1∆) and 3.18 ± 0.16 (ubr1∆).

QFNEFIQIMANIDQEGS [PGD1]: the protein stability index reads like this: (doa10∆) 2.29 ± 0.073; (pdr5∆) 2.37 ± 0.067; (san1∆) 2.33 ± 0.072; (ubr1∆) 2.54 ± 0.049.

Under “ubr1∆”, MRRFILGTTEGDIKVLD [RPN14] yielded a protein stability index of 1.25 ± 0.18.

Take RTLEAITATLVGTVRCE [CSL4]: the protein stability index by setting is: (doa10∆) 1.73 ± 0.12; (pdr5∆) 1.91 ± 0.12; (san1∆) 1.5 ± 0.14; (ubr1∆) 2.47 ± 0.16.

Take SKKGKPTVNKKPKNKKK [SRP72]: the protein stability index by setting is: (doa10∆) 2.73 ± 0.15; (pdr5∆) 2.68 ± 0.11; (san1∆) 2.45 ± 0.12; (ubr1∆) 2.9 ± 0.098.

EITDASLNLQYVNYEIS [YML103C/NUP188] registered a protein stability index (doa10∆) of 2.62 ± 0.05, a protein stability index (pdr5∆) of 2.96 ± 0.067, a protein stability index (san1∆) of 2.31 ± 0.072 and a protein stability index (ubr1∆) of 2.79 ± 0.049.

Turning to MKSLLTELSNKETTIEK [YIL149C/MLP2], the protein stability index by setting is: (doa10∆) 3.23 ± 0.13; (pdr5∆) 3 ± 0.12; (san1∆) 3.41 ± 0.07; (ubr1∆) 3.25 ± 0.062.

On to ESQEKYMEPFDLDLNEQ [NSL1], for which the protein stability index by setting is: (doa10∆) 3.29 ± 0.068; (pdr5∆) 3.21 ± 0.057; (san1∆) 3.35 ± 0.041; (ubr1∆) 3.3 ± 0.045.

As for DQQSPWLLRLELDRAAM [RPO21], the protein stability index by setting is: (doa10∆) 1.49 ± 0.22; (pdr5∆) 1.83 ± 0.14; (san1∆) 1.93 ± 0.13; (ubr1∆) 2.66 ± 0.1.

Where the note is “ubr1∆”, IAKATKEFKGIKVTVQL [RPL12A] came in with a protein stability index of 3.35 ± 0.18.

On to DTLLLLPTDGGLTSRLQ [POP4], for which the protein stability index reads like this: (doa10∆) 3.01 ± 0.14; (pdr5∆) 3.06 ± 0.15; (san1∆) 3.13 ± 0.095; (ubr1∆) 3.26 ± 0.13.

PFQLDVADMLTPEYAAE [UBP6] gave a protein stability index (doa10∆) of 2.95 ± 0.17, a protein stability index (pdr5∆) of 2.65 ± 0.19, a protein stability index (san1∆) of 2.7 ± 0.085 and a protein stability index (ubr1∆) of 2.77 ± 0.16.

As to VDQGQIYRDRSTFTKHL [ITC1], the protein stability index is 3.2 ± 0.06 (doa10∆), 3.33 ± 0.067 (pdr5∆), 3.15 ± 0.042 (san1∆) and 3.15 ± 0.037 (ubr1∆).

In the case of IVHHPYQSLKQIVQVLK [SSN8], the protein stability index runs as follows: (doa10∆) 1.24 ± 0.061; (pdr5∆) 1.58 ± 0.099; (san1∆) 1.18 ± 0.14; (ubr1∆) 1.25 ± 0.072.

As to LNYGNICEPKETLSIFT [YJL039C/NUP192], the protein stability index reads like this: (doa10∆) 2.02 ± 0.061; (pdr5∆) 1.75 ± 0.056; (san1∆) 2.02 ± 0.12; (ubr1∆) 1.73 ± 0.054.

With KVCECVCMHCGKLLLDE [RPO21], the protein stability index amounted to 2.96 ± 0.082 (doa10∆), 2.97 ± 0.073 (pdr5∆), 2.88 ± 0.087 (san1∆) and 2.96 ± 0.047 (ubr1∆).

As to NNSAPNNTNNANSSITP [YJL041W/NSP1], the protein stability index reads like this: (doa10∆) 3.01 ± 0.089; (pdr5∆) 2.97 ± 0.11; (san1∆) 2.73 ± 0.11; (ubr1∆) 2.72 ± 0.11.

As to VLLATWNLEKWREIIEK [IRR1], the protein stability index was determined as 3.14 ± 0.16 (pdr5∆) and 2.92 ± 0.1 (san1∆).

For the sequence TEAEETSIHSTISILAA [RRP43], the protein stability index by setting is: (doa10∆) 1.28 ± 0.043; (pdr5∆) 1.63 ± 0.045; (san1∆) 1.77 ± 0.068; (ubr1∆) 1.37 ± 0.035.

Consider FISNLPNVSDKYYLEES [NUT1], for which the protein stability index was determined as 2.16 ± 0.098 (doa10∆), 1.49 ± 0.094 (pdr5∆) and 1.27 ± 0.076 (ubr1∆).

On to EDLFETISQALLNAADR [PUP3], for which the protein stability index was found to be 2.81 ± 0.12 (doa10∆), 2.01 ± 0.089 (pdr5∆), 1.89 ± 0.16 (san1∆) and 1.92 ± 0.067 (ubr1∆).

As for MSLEPTQTVSGTPPMLH [DSN1], the protein stability index came out at 2.78 ± 0.14 (doa10∆), 3 ± 0.12 (pdr5∆), 2.92 ± 0.22 (san1∆) and 3 ± 0.1 (ubr1∆).

VDDLRPEFAGYSKAAEP [ASC1] gave a protein stability index (doa10∆) of 3.18 ± 0.23 and a protein stability index (ubr1∆) of 3.67 ± 0.16.

In turn, VEYLDVNEENDSYIALY [RET1] returned a protein stability index (doa10∆) of 2.97 ± 0.14, a protein stability index (pdr5∆) of 3.08 ± 0.19, a protein stability index (san1∆) of 3.2 ± 0.08 and a protein stability index (ubr1∆) of 3.2 ± 0.12.

In turn, SKNTAVSKVQKRKVLEL [SRP72] gave a protein stability index (doa10∆) of 2.66 ± 0.11 and a protein stability index (pdr5∆) of 2.1 ± 0.16.

IEKVDRENMICKIDFQK [RRI2]: the protein stability index is, setting by setting: (doa10∆) 3.04 ± 0.11; (pdr5∆) 3.03 ± 0.1; (san1∆) 3.18 ± 0.063; (ubr1∆) 3.15 ± 0.065.

In turn, YRKTEGIFEKAKAKAVT [YMR153W/NUP53] gave a protein stability index (doa10∆) of 2.56 ± 0.09, a protein stability index (pdr5∆) of 2.54 ± 0.12, a protein stability index (san1∆) of 2.65 ± 0.13 and a protein stability index (ubr1∆) of 2.48 ± 0.075.

Sequence RSNFRVNLSQEALQYDP [SNU114] returned a protein stability index (doa10∆) of 2.69 ± 0.074, a protein stability index (pdr5∆) of 2.31 ± 0.09, a protein stability index (san1∆) of 2.93 ± 0.047 and a protein stability index (ubr1∆) of 3.1 ± 0.088.

VKNNQELDQEYRSCETQ [SMC4] registered a protein stability index (doa10∆) of 2.95 ± 0.2.

For ATANATANATANVNASA [DSN1], the protein stability index is, setting by setting: (doa10∆) 2.78 ± 0.043; (pdr5∆) 3 ± 0.037; (san1∆) 3.17 ± 0.032; (ubr1∆) 2.918 ± 0.025.

NVAKNMKTPSLTVYLEP [RPO21] came in with a protein stability index (doa10∆) of 3.07 ± 0.1, a protein stability index (pdr5∆) of 2.86 ± 0.085, a protein stability index (san1∆) of 2.94 ± 0.056 and a protein stability index (ubr1∆) of 3 ± 0.1.

With DDLADDDFEEDEDEEDD [RPC31], the protein stability index is, setting by setting: (pdr5∆) 3.31 ± 0.12; (san1∆) 3.21 ± 0.09; (ubr1∆) 3.46 ± 0.29.

For the sequence MYILGMCVSKGNASLKY [YCG1], the protein stability index (doa10∆) was 1.79 ± 0.083, the protein stability index (pdr5∆) is 2.42 ± 0.12, the protein stability index (san1∆) was 1.58 ± 0.11 and the protein stability index (ubr1∆) came to 2.17 ± 0.091.

Turning to SLEDPQVRKKQIETINF [YDL116W/NUP84], the protein stability index reads like this: (doa10∆) 1.72 ± 0.12; (pdr5∆) 1.82 ± 0.088; (san1∆) 2.19 ± 0.11; (ubr1∆) 2.23 ± 0.19.

HGQKGVCGIIVKQEDMP [RET1]: the protein stability index is 2.93 ± 0.24 (doa10∆) and 1.35 ± 0.16 (pdr5∆).
